Laboratory results as given in patent US12679878B2, “CRF2 receptor agonists and their use in therapy” (SANOFI, priority 2020, dated 2026).
Starred links: 1 amine or outer side, 2 acyl side, 3 side chain; linkers in the order of their positions; H or OH if unused. Non-standard residues stand in square brackets, D forms with d. Groups on a side chain read outwards from the residue. No end group written: not given here. *: point of attachment. C16 diacid = O=C(O)CCCCCCCCCCCCCCC(=O)*; γGlu = O=C(O)[C@H](CCC(=O)[*:2])N[*:1]; Aib = CC(C)(N)C(=O)O

T1: CRF1R receptor (anti-target) (UniProt P34998 24-415, limits assumed)
T1 sequence (looked up): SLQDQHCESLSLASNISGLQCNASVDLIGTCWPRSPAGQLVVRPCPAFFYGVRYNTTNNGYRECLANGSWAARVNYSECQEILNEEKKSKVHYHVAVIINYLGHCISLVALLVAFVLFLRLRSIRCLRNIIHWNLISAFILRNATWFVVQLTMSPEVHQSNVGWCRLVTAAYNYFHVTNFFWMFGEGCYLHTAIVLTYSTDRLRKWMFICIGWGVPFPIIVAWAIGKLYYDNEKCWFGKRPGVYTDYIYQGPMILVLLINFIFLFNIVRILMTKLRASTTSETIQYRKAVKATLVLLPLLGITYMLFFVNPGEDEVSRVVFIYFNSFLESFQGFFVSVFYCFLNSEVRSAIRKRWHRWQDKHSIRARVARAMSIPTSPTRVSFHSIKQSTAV

B1: peptide of SEQ ID NO: 190 (peptide)
peptide: IVLSLD[dV]PIKLK([γGlu-C16 diacid])QILLKQERQKKQREQAEKNKQILEQV-NH2
modifications: N-terminus assumed
SMILES: CC[C@H](C)[C@H](N)C(=O)N[C@H](C(=O)N[C@@H](CC(C)C)C(=O)N[C@@H](CO)C(=O)N[C@@H](CC(C)C)C(=O)N[C@@H](CC(=O)O)C(=O)N[C@@H](C(=O)N1CCC[C@H]1C(=O)N[C@H](C(=O)N[C@@H](CCCCN)C(=O)N[C@@H](CC(C)C)C(=O)N[C@@H](CCCCNC(=O)CC[C@H](NC(=O)CCCCCCCCCCCCCCC(=O)O)C(=O)O)C(=O)N[C@@H](CCC(N)=O)C(=O)N[C@H](C(=O)N[C@@H](CC(C)C)C(=O)N[C@@H](CC(C)C)C(=O)N[C@@H](CCCCN)C(=O)N[C@@H](CCC(N)=O)C(=O)N[C@@H](CCC(=O)O)C(=O)N[C@@H](CCCNC(=N)N)C(=O)N[C@@H](CCC(N)=O)C(=O)N[C@@H](CCCCN)C(=O)N[C@@H](CCCCN)C(=O)N[C@@H](CCC(N)=O)C(=O)N[C@@H](CCCNC(=N)N)C(=O)N[C@@H](CCC(=O)O)C(=O)N[C@@H](CCC(N)=O)C(=O)N[C@@H](C)C(=O)N[C@@H](CCC(=O)O)C(=O)N[C@@H](CCCCN)C(=O)N[C@@H](CC(N)=O)C(=O)N[C@@H](CCCCN)C(=O)N[C@@H](CCC(N)=O)C(=O)N[C@H](C(=O)N[C@@H](CC(C)C)C(=O)N[C@@H](CCC(=O)O)C(=O)N[C@@H](CCC(N)=O)C(=O)N[C@H](C(N)=O)C(C)C)[C@@H](C)CC)[C@@H](C)CC)[C@@H](C)CC)C(C)C)C(C)C
B2: peptide of SEQ ID NO: 197 (peptide)
peptide: IVLSLD[dV]PIKLK([γGlu-C16 diacid])QILLKQARQK[Aib]QRAQAEKNKRILERV-NH2
modifications: N-terminus assumed
SMILES: CC[C@H](C)[C@H](N)C(=O)N[C@H](C(=O)N[C@@H](CC(C)C)C(=O)N[C@@H](CO)C(=O)N[C@@H](CC(C)C)C(=O)N[C@@H](CC(=O)O)C(=O)N[C@@H](C(=O)N1CCC[C@H]1C(=O)N[C@H](C(=O)N[C@@H](CCCCN)C(=O)N[C@@H](CC(C)C)C(=O)N[C@@H](CCCCNC(=O)CC[C@H](NC(=O)CCCCCCCCCCCCCCC(=O)O)C(=O)O)C(=O)N[C@@H](CCC(N)=O)C(=O)N[C@H](C(=O)N[C@@H](CC(C)C)C(=O)N[C@@H](CC(C)C)C(=O)N[C@@H](CCCCN)C(=O)N[C@@H](CCC(N)=O)C(=O)N[C@@H](C)C(=O)N[C@@H](CCCNC(=N)N)C(=O)N[C@@H](CCC(N)=O)C(=O)N[C@@H](CCCCN)C(=O)NC(C)(C)C(=O)N[C@@H](CCC(N)=O)C(=O)N[C@@H](CCCNC(=N)N)C(=O)N[C@@H](C)C(=O)N[C@@H](CCC(N)=O)C(=O)N[C@@H](C)C(=O)N[C@@H](CCC(=O)O)C(=O)N[C@@H](CCCCN)C(=O)N[C@@H](CC(N)=O)C(=O)N[C@@H](CCCCN)C(=O)N[C@@H](CCCNC(=N)N)C(=O)N[C@H](C(=O)N[C@@H](CC(C)C)C(=O)N[C@@H](CCC(=O)O)C(=O)N[C@@H](CCCNC(=N)N)C(=O)N[C@H](C(N)=O)C(C)C)[C@@H](C)CC)[C@@H](C)CC)[C@@H](C)CC)C(C)C)C(C)C
B3: peptide of SEQ ID NO: 189 (peptide)
peptide: IVLSLD[dV]PIKLK([γGlu-C16 diacid])QILLKQERQKK[Aib]RQKAEKNKQILAQV-NH2
modifications: N-terminus assumed
SMILES: CC[C@H](C)[C@H](N)C(=O)N[C@H](C(=O)N[C@@H](CC(C)C)C(=O)N[C@@H](CO)C(=O)N[C@@H](CC(C)C)C(=O)N[C@@H](CC(=O)O)C(=O)N[C@@H](C(=O)N1CCC[C@H]1C(=O)N[C@H](C(=O)N[C@@H](CCCCN)C(=O)N[C@@H](CC(C)C)C(=O)N[C@@H](CCCCNC(=O)CC[C@H](NC(=O)CCCCCCCCCCCCCCC(=O)O)C(=O)O)C(=O)N[C@@H](CCC(N)=O)C(=O)N[C@H](C(=O)N[C@@H](CC(C)C)C(=O)N[C@@H](CC(C)C)C(=O)N[C@@H](CCCCN)C(=O)N[C@@H](CCC(N)=O)C(=O)N[C@@H](CCC(=O)O)C(=O)N[C@@H](CCCNC(=N)N)C(=O)N[C@@H](CCC(N)=O)C(=O)N[C@@H](CCCCN)C(=O)N[C@@H](CCCCN)C(=O)NC(C)(C)C(=O)N[C@@H](CCCNC(=N)N)C(=O)N[C@@H](CCC(N)=O)C(=O)N[C@@H](CCCCN)C(=O)N[C@@H](C)C(=O)N[C@@H](CCC(=O)O)C(=O)N[C@@H](CCCCN)C(=O)N[C@@H](CC(N)=O)C(=O)N[C@@H](CCCCN)C(=O)N[C@@H](CCC(N)=O)C(=O)N[C@H](C(=O)N[C@@H](CC(C)C)C(=O)N[C@@H](C)C(=O)N[C@@H](CCC(N)=O)C(=O)N[C@H](C(N)=O)C(C)C)[C@@H](C)CC)[C@@H](C)CC)[C@@H](C)CC)C(C)C)C(C)C
B4: peptide of SEQ ID NO: 195 (peptide)
peptide: IVLSLD[dV]PIGLK([γGlu-C16 diacid])QILLKQERQKK[Aib]RQQAETNKRILERV-NH2
modifications: N-terminus assumed
SMILES: CC[C@H](C)[C@H](N)C(=O)N[C@H](C(=O)N[C@@H](CC(C)C)C(=O)N[C@@H](CO)C(=O)N[C@@H](CC(C)C)C(=O)N[C@@H](CC(=O)O)C(=O)N[C@@H](C(=O)N1CCC[C@H]1C(=O)N[C@H](C(=O)NCC(=O)N[C@@H](CC(C)C)C(=O)N[C@@H](CCCCNC(=O)CC[C@H](NC(=O)CCCCCCCCCCCCCCC(=O)O)C(=O)O)C(=O)N[C@@H](CCC(N)=O)C(=O)N[C@H](C(=O)N[C@@H](CC(C)C)C(=O)N[C@@H](CC(C)C)C(=O)N[C@@H](CCCCN)C(=O)N[C@@H](CCC(N)=O)C(=O)N[C@@H](CCC(=O)O)C(=O)N[C@@H](CCCNC(=N)N)C(=O)N[C@@H](CCC(N)=O)C(=O)N[C@@H](CCCCN)C(=O)N[C@@H](CCCCN)C(=O)NC(C)(C)C(=O)N[C@@H](CCCNC(=N)N)C(=O)N[C@@H](CCC(N)=O)C(=O)N[C@@H](CCC(N)=O)C(=O)N[C@@H](C)C(=O)N[C@@H](CCC(=O)O)C(=O)N[C@H](C(=O)N[C@@H](CC(N)=O)C(=O)N[C@@H](CCCCN)C(=O)N[C@@H](CCCNC(=N)N)C(=O)N[C@H](C(=O)N[C@@H](CC(C)C)C(=O)N[C@@H](CCC(=O)O)C(=O)N[C@@H](CCCNC(=N)N)C(=O)N[C@H](C(N)=O)C(C)C)[C@@H](C)CC)[C@@H](C)O)[C@@H](C)CC)[C@@H](C)CC)C(C)C)C(C)C
B5: peptide of SEQ ID NO: 196 (peptide)
peptide: IVLSLD[dV]PIGLK([γGlu-C16 diacid])QILLKQERQKK[Aib]REQAEKNKRILERV-NH2
modifications: N-terminus assumed
SMILES: CC[C@H](C)[C@H](N)C(=O)N[C@H](C(=O)N[C@@H](CC(C)C)C(=O)N[C@@H](CO)C(=O)N[C@@H](CC(C)C)C(=O)N[C@@H](CC(=O)O)C(=O)N[C@@H](C(=O)N1CCC[C@H]1C(=O)N[C@H](C(=O)NCC(=O)N[C@@H](CC(C)C)C(=O)N[C@@H](CCCCNC(=O)CC[C@H](NC(=O)CCCCCCCCCCCCCCC(=O)O)C(=O)O)C(=O)N[C@@H](CCC(N)=O)C(=O)N[C@H](C(=O)N[C@@H](CC(C)C)C(=O)N[C@@H](CC(C)C)C(=O)N[C@@H](CCCCN)C(=O)N[C@@H](CCC(N)=O)C(=O)N[C@@H](CCC(=O)O)C(=O)N[C@@H](CCCNC(=N)N)C(=O)N[C@@H](CCC(N)=O)C(=O)N[C@@H](CCCCN)C(=O)N[C@@H](CCCCN)C(=O)NC(C)(C)C(=O)N[C@@H](CCCNC(=N)N)C(=O)N[C@@H](CCC(=O)O)C(=O)N[C@@H](CCC(N)=O)C(=O)N[C@@H](C)C(=O)N[C@@H](CCC(=O)O)C(=O)N[C@@H](CCCCN)C(=O)N[C@@H](CC(N)=O)C(=O)N[C@@H](CCCCN)C(=O)N[C@@H](CCCNC(=N)N)C(=O)N[C@H](C(=O)N[C@@H](CC(C)C)C(=O)N[C@@H](CCC(=O)O)C(=O)N[C@@H](CCCNC(=N)N)C(=O)N[C@H](C(N)=O)C(C)C)[C@@H](C)CC)[C@@H](C)CC)[C@@H](C)CC)C(C)C)C(C)C
B6: peptide of SEQ ID NO: 193 (peptide)
peptide: IVLSLD[dV]PIGLK([γGlu-C16 diacid])QILLKQERQKK[Aib]REQAETNKRILERV-NH2
modifications: N-terminus assumed
SMILES: CC[C@H](C)[C@H](N)C(=O)N[C@H](C(=O)N[C@@H](CC(C)C)C(=O)N[C@@H](CO)C(=O)N[C@@H](CC(C)C)C(=O)N[C@@H](CC(=O)O)C(=O)N[C@@H](C(=O)N1CCC[C@H]1C(=O)N[C@H](C(=O)NCC(=O)N[C@@H](CC(C)C)C(=O)N[C@@H](CCCCNC(=O)CC[C@H](NC(=O)CCCCCCCCCCCCCCC(=O)O)C(=O)O)C(=O)N[C@@H](CCC(N)=O)C(=O)N[C@H](C(=O)N[C@@H](CC(C)C)C(=O)N[C@@H](CC(C)C)C(=O)N[C@@H](CCCCN)C(=O)N[C@@H](CCC(N)=O)C(=O)N[C@@H](CCC(=O)O)C(=O)N[C@@H](CCCNC(=N)N)C(=O)N[C@@H](CCC(N)=O)C(=O)N[C@@H](CCCCN)C(=O)N[C@@H](CCCCN)C(=O)NC(C)(C)C(=O)N[C@@H](CCCNC(=N)N)C(=O)N[C@@H](CCC(=O)O)C(=O)N[C@@H](CCC(N)=O)C(=O)N[C@@H](C)C(=O)N[C@@H](CCC(=O)O)C(=O)N[C@H](C(=O)N[C@@H](CC(N)=O)C(=O)N[C@@H](CCCCN)C(=O)N[C@@H](CCCNC(=N)N)C(=O)N[C@H](C(=O)N[C@@H](CC(C)C)C(=O)N[C@@H](CCC(=O)O)C(=O)N[C@@H](CCCNC(=N)N)C(=O)N[C@H](C(N)=O)C(C)C)[C@@H](C)CC)[C@@H](C)O)[C@@H](C)CC)[C@@H](C)CC)C(C)C)C(C)C

biological target: T1, CRF1R receptor (anti-target); experiment: cell-based or functional assay

CRF1/CRF2 ratio (of EC50) | CRF1 EC50 (cAMP, HTRF) [nM] | Binder
> 500 | > 100 | B1
> 500 | > 100 | B2
> 500 | > 100 | B3
> 500 | > 100 | B4
> 500 | > 100 | B5
> 500 | > 100 | B6
